Tested on: Escherichia coli TOP10
Experiment: shrunken log2 fold change of peptide-encoding DNA abundance (4.5 h post-induction vs induction); higher = less antimicrobial activity (less host growth inhibition)
Settings: time post-induction: 4.5 h; library: site-saturation at positions 5, 18, 19, 20
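Also: peptides expressed intracellularly from a pBAD plasmid library in pooled LB shake-flask culture, induced with 0.3% L-arabinose, DNA abundance read by NGS, three biological replicates, DESeq2 with apeglm shrinkage.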

Row | Sequence | shrunken log2 fold change
1 | RRIRWRPPRLPRPRPRPEWHPRP | 0.595
2 | RRIRHRPPRLPRPRPRPGGIPRP | -0.092
3 | RRIRIRPPRLPRPRPRPKSCPRP | -0.0687
4 | RRIRARPPRLPRPRPRPMNTPRP | 0.0292
5 | RRIRFRPPRLPRPRPRPSPFPRP | 0.0724
6 | RRIRMRPPRLPRPRPRPDTVPRP | 0.00533
7 | RRIRCRPPRLPRPRPRPRLTPRP | 0.0689
8 | RRIRTRPPRLPRPRPRPCWYPRP | 4
9 | RRIRKRPPRLPRPRPRPEHGPRP | 0.0647
10 | RRIRKRPPRLPRPRPRPEKKPRP | -0.018
11 | RRIRRRPPRLPRPRPRPWPMPRP | -0.157
12 | RRIRWRPPRLPRPRPRPFHWPRP | 0.175
13 | RRIRERPPRLPRPRPRPFPRPRP | 0.087
14 | RRIRSRPPRLPRPRPRPRETPRP | 0.124
15 | RRIRTRPPRLPRPRPRPAEKPRP | 0.0882
16 | RRIRVRPPRLPRPRPRPHQYPRP | -0.278
17 | RRIRNRPPRLPRPRPRPEEWPRP | 0.108
18 | RRIRIRPPRLPRPRPRPKSMPRP | -0.208
19 | RRIRIRPPRLPRPRPRPVESPRP | -0.0832
20 | RRIRNRPPRLPRPRPRPFYNPRP | -0.484
21 | RRIRLRPPRLPRPRPRPGKCPRP | -0.073
22 | RRIRMRPPRLPRPRPRPAQNPRP | 1.07
23 | RRIRHRPPRLPRPRPRPNPHPRP | -0.35
24 | RRIRKRPPRLPRPRPRPQILPRP | -0.144
25 | RRIRQRPPRLPRPRPRPYHAPRP | -0.052

Row | Sequence | shrunken log2 fold change
26 | RRIRMRPPRLPRPRPRPCLSPRP | -0.0592
27 | RRIRFRPPRLPRPRPRPECVPRP | 0.0137
28 | RRIRRRPPRLPRPRPRPSERPRP | -0.0993
29 | RRIRSRPPRLPRPRPRPDWNPRP | -0.298
30 | RRIRYRPPRLPRPRPRPTWCPRP | -0.544
31 | RRIRSRPPRLPRPRPRPVITPRP | -0.0353
32 | RRIRPRPPRLPRPRPRPNDAPRP | -0.025
33 | RRIRVRPPRLPRPRPRPQSPPRP | -0.221
34 | RRIRDRPPRLPRPRPRPMEQPRP | -0.164
35 | RRIRGRPPRLPRPRPRPREAPRP | 1.31
36 | RRIRARPPRLPRPRPRPGAPPRP | 0.703
37 | RRIRQRPPRLPRPRPRPMIEPRP | -0.118
38 | RRIRQRPPRLPRPRPRPGCDPRP | -0.229
39 | RRIRRRPPRLPRPRPRPFCLPRP | 0.194
40 | RRIRHRPPRLPRPRPRPLEQPRP | -0.0138
41 | RRIRMRPPRLPRPRPRPTNSPRP | -0.302
42 | RRIRFRPPRLPRPRPRPWPFPRP | -0.455
43 | RRIRFRPPRLPRPRPRPHNGPRP | -0.0493
44 | RRIRTRPPRLPRPRPRPHAHPRP | -0.117
45 | RRIRNRPPRLPRPRPRPHFDPRP | -0.356
46 | RRIRPRPPRLPRPRPRPMFYPRP | -0.449
47 | RRIRTRPPRLPRPRPRPKTYPRP | -0.566
48 | RRIRHRPPRLPRPRPRPKVYPRP | 0.0338
49 | RRIRDRPPRLPRPRPRPYSSPRP | -0.152
50 | RRIRIRPPRLPRPRPRPAPYPRP | -0.406

Row | Sequence | shrunken log2 fold change
51 | RRIRERPPRLPRPRPRPEPRPRP | 0.379
52 | RRIRQRPPRLPRPRPRPDPRPRP | -0.00604
53 | RRIRYRPPRLPRPRPRPQICPRP | -0.00591
54 | RRIRFRPPRLPRPRPRPQYQPRP | -0.118
55 | RRIRARPPRLPRPRPRPGWQPRP | 0.0839
56 | RRIRPRPPRLPRPRPRPTNMPRP | -0.298
57 | RRIRNRPPRLPRPRPRPDDRPRP | 0.0384
58 | RRIRKRPPRLPRPRPRPGEDPRP | 0.0621
59 | RRIRGRPPRLPRPRPRPRWGPRP | 0.852
60 | RRIRIRPPRLPRPRPRPYTFPRP | -2.16
61 | RRIRQRPPRLPRPRPRPWHWPRP | 0.107
62 | RRIRRRPPRLPRPRPRPDTVPRP | 0.0777
63 | RRIRIRPPRLPRPRPRPWYCPRP | -0.0341
64 | RRIRGRPPRLPRPRPRPMYNPRP | -0.104
65 | RRIRGRPPRLPRPRPRPHLRPRP | -0.148
66 | RRIRDRPPRLPRPRPRPPNPPRP | 0.0735
67 | RRIRERPPRLPRPRPRPGHEPRP | 0.159
68 | RRIRYRPPRLPRPRPRPAPIPRP | 0.226
69 | RRIRNRPPRLPRPRPRPPISPRP | 0.129
70 | RRIRERPPRLPRPRPRPFFPPRP | -0.241
71 | RRIRKRPPRLPRPRPRPTIRPRP | -0.241
72 | RRIRQRPPRLPRPRPRPLKPPRP | 0.0722
73 | RRIRKRPPRLPRPRPRPFATPRP | 0.45
74 | RRIRFRPPRLPRPRPRPTQFPRP | 0.153
75 | RRIRPRPPRLPRPRPRPFHHPRP | -0.763

Row | Sequence | shrunken log2 fold change
76 | RRIRVRPPRLPRPRPRPPYVPRP | -0.153
77 | RRIRDRPPRLPRPRPRPFNYPRP | -0.048
78 | RRIRLRPPRLPRPRPRPFMMPRP | -0.449
79 | RRIRERPPRLPRPRPRPWVWPRP | 0.0922
80 | RRIRDRPPRLPRPRPRPIDPPRP | -0.107
81 | RRIRRRPPRLPRPRPRPDSLPRP | 0.0868
82 | RRIRHRPPRLPRPRPRPLEHPRP | -0.00318
83 | RRIRHRPPRLPRPRPRPSFDPRP | -0.429
84 | RRIRNRPPRLPRPRPRPVKMPRP | -0.107
85 | RRIRKRPPRLPRPRPRPAEIPRP | -0.119
86 | RRIRGRPPRLPRPRPRPFLNPRP | 0.18
87 | RRIRMRPPRLPRPRPRPANMPRP | -0.203
88 | RRIRHRPPRLPRPRPRPSCWPRP | -0.0721
89 | RRIRDRPPRLPRPRPRPVHMPRP | 0.111
90 | RRIRCRPPRLPRPRPRPGSNPRP | -0.915
91 | RRIRPRPPRLPRPRPRPKLVPRP | 0.0371
92 | RRIRWRPPRLPRPRPRPLAHPRP | 0.29
93 | RRIRARPPRLPRPRPRPYGMPRP | -0.684
94 | RRIRFRPPRLPRPRPRPMFSPRP | -0.0614
95 | RRIRQRPPRLPRPRPRPDVRPRP | -0.023
96 | RRIRVRPPRLPRPRPRPCNFPRP | -0.0271
97 | RRIRKRPPRLPRPRPRPNHMPRP | -0.106
98 | RRIRKRPPRLPRPRPRPIVIPRP | -0.0175
99 | RRIRDRPPRLPRPRPRPQPYPRP | -0.651
100 | RRIRGRPPRLPRPRPRPTAMPRP | 2.78

Row | Sequence | shrunken log2 fold change
101 | RRIRFRPPRLPRPRPRPDVSPRP | 0.0432
102 | RRIRPRPPRLPRPRPRPFFGPRP | 0.0908
103 | RRIRTRPPRLPRPRPRPVGWPRP | 0.753
104 | RRIRPRPPRLPRPRPRPTAHPRP | 0.231
105 | RRIRLRPPRLPRPRPRPKGVPRP | 0.0368
106 | RRIRIRPPRLPRPRPRPYRFPRP | -0.636
107 | RRIRVRPPRLPRPRPRPQGFPRP | -0.0921
108 | RRIRERPPRLPRPRPRPAPHPRP | 0.704
109 | RRIRTRPPRLPRPRPRPSQCPRP | -0.239
110 | RRIRERPPRLPRPRPRPNYGPRP | -0.0315
111 | RRIRPRPPRLPRPRPRPWTFPRP | -0.00547
112 | RRIRGRPPRLPRPRPRPLIYPRP | 0.105
113 | RRIRERPPRLPRPRPRPTPYPRP | -0.389
114 | RRIRVRPPRLPRPRPRPPMWPRP | 0.303
115 | RRIRIRPPRLPRPRPRPVKNPRP | -0.765
116 | RRIRTRPPRLPRPRPRPWRTPRP | 0.112
117 | RRIRERPPRLPRPRPRPPIGPRP | -0.144
118 | RRIRTRPPRLPRPRPRPQCLPRP | 0.0552
119 | RRIRWRPPRLPRPRPRPWVMPRP | -0.129
120 | RRIRWRPPRLPRPRPRPWRYPRP | -0.262
121 | RRIRIRPPRLPRPRPRPYCCPRP | -0.476
122 | RRIRERPPRLPRPRPRPLIGPRP | -0.0644
123 | RRIRNRPPRLPRPRPRPNMDPRP | -0.0443
124 | RRIRVRPPRLPRPRPRPMFAPRP | -0.0323
125 | RRIRIRPPRLPRPRPRPHWKPRP | -0.0691

— the supplement of paper PMC9112550, “Optimization of the antimicrobial peptide Bac7 by deep mutational scanning” (BMC Biology, 2022)
